Test results as given in paper PMC3799435, “Dissecting the interactions of SERRATE with RNA and DICER-LIKE 1 in Arabidopsis microRNA precursor processing” (Nucleic Acids Research, 2013).

Assays:
Conditions in all cases: both partners purified
[1] = target: T1, DICER-LIKE 1 (DCL1), untagged recombinant (Arabidopsis thaliana, UniProt Q9SP32 1-1909); test: SPR; Biacore T100; about 1750 RU of DCL1 immobilised via amine groups on a CM5 chip, no RNA; SE and its mutants injected for 70 s at 20 nM; 20 mM Tris-HCl (pH 7.0), 50 mM NaCl, 2 mM β-ME, 0.005% surfactant P20
T1 construct: DICER-LIKE 1 (DCL1) of Arabidopsis thaliana, 214 kDa; cDNA amplified with primers from the start codon to the stop codon; one silent mutation introduced; no extra residues at the N-terminus after SUMOstar protease; also called native DCL1; source: Sf9 insect cells (baculovirus), purified (Ni-NTA, StrepTrap, SUMOstar protease, Ni-NTA flow-through, Superdex 200); not shown: His6, N-terminal, …

[2] = target: T1, DICER-LIKE 1 (DCL1), untagged …; test: SPR; Biacore T100; 1750 RU of DCL1 immobilised via amine groups on a CM5 chip; SE injected for 70 s at 20 nM; 20 mM Tris-HCl (pH 7.0), 2 mM β-ME, 0.005% surfactant P20, 50 mM or 150 mM NaCl
[3] = target: T1, DICER-LIKE 1 (DCL1), untagged …; test: SPR; Biacore T100; about 1200 RU of DCL1 (injected at 16 nM) bound beforehand to 60 RU of biotin-labelled forked RNA on an SA chip; SE and its mutants then injected for 70 s at 20 nM; 20 mM Tris-HCl (pH 7.0), 50 mM NaCl, 2 mM β-ME, 0.005% surfactant P20; RU of mutants normalised to the RU of DCL1 bound

T1 sequence (Q9SP32 whole entry): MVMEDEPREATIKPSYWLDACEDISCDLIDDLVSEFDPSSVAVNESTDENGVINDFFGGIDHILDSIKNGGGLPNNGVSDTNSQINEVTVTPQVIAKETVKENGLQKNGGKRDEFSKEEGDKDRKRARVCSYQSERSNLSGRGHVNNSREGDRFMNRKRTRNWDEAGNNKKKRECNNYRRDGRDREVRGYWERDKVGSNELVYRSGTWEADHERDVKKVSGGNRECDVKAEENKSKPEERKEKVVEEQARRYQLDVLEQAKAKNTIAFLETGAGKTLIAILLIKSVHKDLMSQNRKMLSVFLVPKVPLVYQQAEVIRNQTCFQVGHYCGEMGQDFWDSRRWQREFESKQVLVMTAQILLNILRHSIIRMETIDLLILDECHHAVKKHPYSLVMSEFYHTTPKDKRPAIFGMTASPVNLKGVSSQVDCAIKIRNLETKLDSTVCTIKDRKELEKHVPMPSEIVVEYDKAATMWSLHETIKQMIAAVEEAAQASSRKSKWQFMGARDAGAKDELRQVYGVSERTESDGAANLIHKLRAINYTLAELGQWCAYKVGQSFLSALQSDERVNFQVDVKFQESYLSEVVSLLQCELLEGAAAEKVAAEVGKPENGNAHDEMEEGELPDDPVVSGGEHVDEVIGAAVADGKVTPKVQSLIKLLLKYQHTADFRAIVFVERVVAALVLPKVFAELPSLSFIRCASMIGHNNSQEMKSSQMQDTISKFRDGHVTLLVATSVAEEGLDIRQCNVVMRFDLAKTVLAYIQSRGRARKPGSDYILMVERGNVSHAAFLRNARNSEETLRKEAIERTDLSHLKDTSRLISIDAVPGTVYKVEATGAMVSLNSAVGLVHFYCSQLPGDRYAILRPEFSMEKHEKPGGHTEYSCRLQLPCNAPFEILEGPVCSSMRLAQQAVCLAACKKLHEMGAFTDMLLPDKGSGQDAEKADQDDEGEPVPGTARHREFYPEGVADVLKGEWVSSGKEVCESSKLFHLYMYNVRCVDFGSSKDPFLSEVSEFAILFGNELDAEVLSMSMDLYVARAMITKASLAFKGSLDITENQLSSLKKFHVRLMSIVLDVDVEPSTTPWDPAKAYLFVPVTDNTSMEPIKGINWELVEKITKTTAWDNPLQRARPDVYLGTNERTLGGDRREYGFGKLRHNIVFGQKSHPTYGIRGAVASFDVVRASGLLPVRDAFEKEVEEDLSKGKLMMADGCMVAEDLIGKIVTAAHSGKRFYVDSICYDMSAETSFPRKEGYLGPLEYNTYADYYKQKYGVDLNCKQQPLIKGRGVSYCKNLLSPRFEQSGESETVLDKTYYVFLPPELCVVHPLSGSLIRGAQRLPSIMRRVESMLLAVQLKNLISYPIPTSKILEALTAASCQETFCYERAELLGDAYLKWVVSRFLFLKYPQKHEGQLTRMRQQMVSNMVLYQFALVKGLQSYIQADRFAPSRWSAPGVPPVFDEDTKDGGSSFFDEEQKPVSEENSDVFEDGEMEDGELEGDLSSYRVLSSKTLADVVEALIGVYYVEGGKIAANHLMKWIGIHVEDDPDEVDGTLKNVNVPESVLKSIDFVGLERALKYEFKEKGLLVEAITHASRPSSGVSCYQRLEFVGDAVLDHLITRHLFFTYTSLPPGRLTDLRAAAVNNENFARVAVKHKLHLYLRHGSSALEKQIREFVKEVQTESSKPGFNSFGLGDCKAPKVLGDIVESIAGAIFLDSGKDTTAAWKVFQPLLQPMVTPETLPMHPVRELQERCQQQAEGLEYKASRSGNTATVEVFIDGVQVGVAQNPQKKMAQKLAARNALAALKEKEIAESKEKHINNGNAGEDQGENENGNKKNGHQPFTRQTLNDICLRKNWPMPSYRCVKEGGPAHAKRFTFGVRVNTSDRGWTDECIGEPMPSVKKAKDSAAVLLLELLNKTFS

B1: SE1–701, C-terminally truncated hexahistidine-tagged SERRATE (domain or fragment, Arabidopsis thaliana, UniProt Q9ZVD0 1-701, looked up)
chain: MADVNLPPSDSVDNRLPEKSTSSSPPPPPPSSSLPQQEQEQDQQQLPLRRERDSRERRDERDIERPPPNRRERDRSPLPPPRRDYKRRPSLSPPPPYRDRRHSPPQRRSPPQKRYRRDDNGYDGRRGSPRGGYGPPDRRFGYDHGGGYDREMGGRPGYGDERPHGRFMGRYQDWEGGRGGYGDASNSGNPQRDGLMSYKQFIQELEDDILPSEAERRYQEYKSEYITTQKRAFFNTHKEEDWLKNKYHPTNLLSVIERRNDLAQKVAKDFLLDLQSGTLDLGPAVTALNKSGRTSEPNSEDEAAGVGKRKRHGMGGAKENELLSAAPKAPSFTSDPKRILTDVEQTQALVRKLDSEKKIEENVLQGSETEKSGREKLHSGSTGPVVIIRGLTSVKGLEGVELLDTLVTYLWRVHGLDYYGKVETNEAKGLRHVRAEGKVSDAKGDENESKFDSHWQERLKGQDPLEVMAAKEKIDAAATEALDPHVRKIRDEKYGWKYGCGAKGCTKLFHAAEFVYKHLKLKHTELVTELTTKVREELYFQNYMNDPNAPGGQPATQQSGPRDRPIRRKPSMENRLRDDRGGRRERDGRANGNDRNDRSEDQQRGDNDGGNPGEVGYDAFGGQGGVHVPPFLSDINPPPMLMPVPGAGPLGPFVPAPPEVAMQMFRDPSGPNPPFEGSGRGGPAPFLLSPAFRQDPRRLRS
notes: No cleavage step of the tag is described in the purification; also called C-terminal domain deletion; source: Sf9 insect cells (baculovirus), purified (TALON, Superdex 200)
binding result [1]: binds

B2: SERRATE (SE), untagged recombinant (natural protein, Arabidopsis thaliana, UniProt Q9ZVD0 1-720, looked up)
chain: MADVNLPPSDSVDNRLPEKSTSSSPPPPPPSSSLPQQEQEQDQQQLPLRRERDSRERRDERDIERPPPNRRERDRSPLPPPRRDYKRRPSLSPPPPYRDRRHSPPQRRSPPQKRYRRDDNGYDGRRGSPRGGYGPPDRRFGYDHGGGYDREMGGRPGYGDERPHGRFMGRYQDWEGGRGGYGDASNSGNPQRDGLMSYKQFIQELEDDILPSEAERRYQEYKSEYITTQKRAFFNTHKEEDWLKNKYHPTNLLSVIERRNDLAQKVAKDFLLDLQSGTLDLGPAVTALNKSGRTSEPNSEDEAAGVGKRKRHGMGGAKENELLSAAPKAPSFTSDPKRILTDVEQTQALVRKLDSEKKIEENVLQGSETEKSGREKLHSGSTGPVVIIRGLTSVKGLEGVELLDTLVTYLWRVHGLDYYGKVETNEAKGLRHVRAEGKVSDAKGDENESKFDSHWQERLKGQDPLEVMAAKEKIDAAATEALDPHVRKIRDEKYGWKYGCGAKGCTKLFHAAEFVYKHLKLKHTELVTELTTKVREELYFQNYMNDPNAPGGQPATQQSGPRDRPIRRKPSMENRLRDDRGGRRERDGRANGNDRNDRSEDQQRGDNDGGNPGEVGYDAFGGQGGVHVPPFLSDINPPPMLMPVPGAGPLGPFVPAPPEVAMQMFRDPSGPNPPFEGSGRGGPAPFLLSPAFRQDPRRLRSYQDLDAPEEEVTVIDYRSL
notes: SERRATE (SE) of Arabidopsis thaliana, 81 kDa, 720 amino acids; cDNA amplified with primers from the start codon to the stop codon; also called native SE; untagged SE; source: Sf9 insect cells (baculovirus), purified (Ni-NTA, StrepTrap, SUMOstar protease, Ni-NTA flow-through, Superdex 200); not shown: His6, N-terminal, cleaved; Strep-tag II, N-terminal, cleaved; SUMOstar, N-terminal, cleaved
fold reduction in RUmax from 50 to 150 mM NaCl [2]: 5 fold

B3: N-terminally hexahistidine-tagged wild-type SERRATE (SE) (natural protein, Arabidopsis thaliana, UniProt Q9ZVD0 1-720, looked up)
chain: MADVNLPPSDSVDNRLPEKSTSSSPPPPPPSSSLPQQEQEQDQQQLPLRRERDSRERRDERDIERPPPNRRERDRSPLPPPRRDYKRRPSLSPPPPYRDRRHSPPQRRSPPQKRYRRDDNGYDGRRGSPRGGYGPPDRRFGYDHGGGYDREMGGRPGYGDERPHGRFMGRYQDWEGGRGGYGDASNSGNPQRDGLMSYKQFIQELEDDILPSEAERRYQEYKSEYITTQKRAFFNTHKEEDWLKNKYHPTNLLSVIERRNDLAQKVAKDFLLDLQSGTLDLGPAVTALNKSGRTSEPNSEDEAAGVGKRKRHGMGGAKENELLSAAPKAPSFTSDPKRILTDVEQTQALVRKLDSEKKIEENVLQGSETEKSGREKLHSGSTGPVVIIRGLTSVKGLEGVELLDTLVTYLWRVHGLDYYGKVETNEAKGLRHVRAEGKVSDAKGDENESKFDSHWQERLKGQDPLEVMAAKEKIDAAATEALDPHVRKIRDEKYGWKYGCGAKGCTKLFHAAEFVYKHLKLKHTELVTELTTKVREELYFQNYMNDPNAPGGQPATQQSGPRDRPIRRKPSMENRLRDDRGGRRERDGRANGNDRNDRSEDQQRGDNDGGNPGEVGYDAFGGQGGVHVPPFLSDINPPPMLMPVPGAGPLGPFVPAPPEVAMQMFRDPSGPNPPFEGSGRGGPAPFLLSPAFRQDPRRLRSYQDLDAPEEEVTVIDYRSL
notes: SERRATE (SE) of Arabidopsis thaliana, 720 amino acids; tagged protein 86 kDa; primers from the start codon to the stop codon; myc tag and Strep tag II were inserted in the NotI site of the modified pENTR-D/TOPO vector, then moved to pDEST10; also called His-tagged SE; hexahistidine-tagged SE; source: Sf9 insect cells (baculovirus), purified (TALON, Superdex 200); not shown: His6, N-terminal, kept
stoichiometry N [1]: 0.7 SE:DCL1 molar ratio | stoichiometry N [3]: 2.4 SE:DCL1 molar ratio
